Experimental findings from patent US7345026 are described below.

Read-outs that look alike come from different tables or passages of the source.

For this test, the target named is HLA-A2.1 molecules on T2 (TAP-, HLA-A2.1+) cells (human). Put plainly: T2 cells, peptide binding by surface HLA-A2.1 (BB7.2) flow cytometry; ratio of concentrations reaching 20% of maximal binding. On the technique in general: A flow cytometer gives signals particle by particle.

B1: p53 65-73 epitopic peptide (peptide)
peptide: RMPEAAPPV
For the molecule B1, the RA (relative affinity) (ratio to HIV 1 rt.476 reference peptide) (remark: other sources report otherwise) amounted to 0.91.

B2: NA17-A nt38-64 epitopic peptide (peptide)
peptide: VLPDVFIRC
modifications: not checked
Turning to B2, the RA (relative affinity) (ratio to HIV 1 rt.476 reference peptide) was 1.52.
